{"source": "the DeepSol protein solubility set"}
{"assay": "soluble on expression in E. coli; label from the status in PepcDB or PDB records"}
{"sequence": "MRRVSINSFLEPNSPNVPNRVTIPDGDLRRNSDDTATDRISLTNQLGKSAYSTTTEDSIDSETSETRMDSSRTSEISGNVKEDPVSENQYVLENSESSESIVVDLEMPGMTLRSKASPRKRYMSKKEKDLNDEKKNFKDLVLTIGQNQIQDPDEDFQITKEAIDLLQSESDKILLEMFTSSNAIATAGERDILTPTDIQTARHIQMIMKKYKK", "soluble on expression in E. coli": "not soluble"}
{"sequence": "MRRVVVTGLGALTPIGVGQEAFHKAQLAGKSGVRPITRFDASALPVRIAAEVDVDPGAYLDRKELRRLDRFVQYALIAAQLALEDAGLKPEDLDPERVGTLVGTGIGGMETWEAQSRVFLERGPNRISPFFIPMMIANMASAHIAMRYGFTGPSSTVVTACATGADALGSALRMIQLGEADLVLAGGTEAAITPMAIGAFAVMRALSTRNEEPEKASRPFTLSRDGFVMGEGAGVLVLEAYEHAKKRGARIYAELVGFGRSADAHHITEPHPEGKGAALAMARALKDAGIAPEQVGYINAHGTSTPVGDRAEVLAIKRVFGDHAKRLMVSSTKSMIGHLLGAAGAVEAIATVQALYHGVIPPTINLEDPDPELDLDFVPEPREAKVDYALSNSFAFGGHNAVLAFKRV", "soluble on expression in E. coli": "soluble"}
{"sequence": "MRSAVTFFTFFLDKAEPISTRDTSSESIIPEQEKRRDDMRAVVLVPFLKQQRENRDAASAPAAPGRSVEAKLEEAKGLALAIDLEVTQGLVVPVNQPRPATLFGTGKIEEIGHLLDETNSGLVIVDHPLTPVQQRNLESSGTPRLSTAPVAAALEHHHHHH", "soluble on expression in E. coli": "not soluble"}
{"sequence": "MRSGKIFHHFDQWGIIIRKDMLKQLALFIALFGAVTAWNRQNHFGNPCYLCSCFTVYTDRDVAVPLRPYAMAIDGYDTTEDRCLATCQRDQRCRAAVYGMVGGRSVFTCEFYEKFNTKSVPVYTTYVNMYMKRSSECKLPIAHLSSIEMIPADNSSLKRRAKLEKLIGRKNPFLG", "soluble on expression in E. coli": "not soluble"}
{"sequence": "MRSHNLFGDMCEAFMTKYVMTELRPKTQTLYKSTFNKYVTPYKNIDIERYKYTDWIAYFDWVKKESSSANAGSVLKRFKAVANWAKARGQIKHSHLIDIPIKLEHHHHHH", "soluble on expression in E. coli": "not soluble"}
{"sequence": "MRSIPLCQLLLLLTILSIDARPSDHFLSFSKTELCAAEPHLKVCQPNSRAQSSKIINGDGLTAERLEQLSKHSNKGFIEEEANSGRSSAASNVDDPFEDVATRAPPSSNEYEEERYSHRKHKHHHRKSHRGHHYGSPYQQYYQQQQHHDPLTYRVYPGLHPKDGRYCSDMKGMFAYTCAPSKPLRIDLVEFCKDYAAFCNVPNFHRLPGPRMGPPLTDKGVGHVDVNGHFGFGVGAVPGLEVGVGWGVDVGPIPGMGESVGVGVGLDLGIMGSKTPEAFRRGQDDPNAKGGGIVGINGGVGVKAPGTGDGVGVGTGLGVGK", "soluble on expression in E. coli": "not soluble"}
{"sequence": "MRSSKSPFKRKSHSRETSHDENTSFFHKRTISGSSAHHSRNVSQGAVPSSAPPVSGGNYSHKRNVSRASNSSQTSNFLAEQYERDRKAIINCCFSRPDHKTGEPPNNYITHVRIIEDSKFPSSRPPPDSKLENKKKRLLILSAKPNNAKLIQIHKARENSDGSFQIGRTWQLTELVRVEKDLEISEGFILTMSKKYYWETNSAKERTVFIKSLITLYIQTFEGHVPELVNWDLSLFYLDERSYQRAVITNRPGSVSPIKSPTSNFTTNTTQSVGSVPFSAPTERTRRSETESVNPVSTPASVEYHAGMKSLNKAPYSSNS", "soluble on expression in E. coli": "soluble"}
{"sequence": "MRTFCILKDFKIFIIFFLQNPCGGEGLNILERIAKEVQEETKVRLHARNVERVLQALLKTGDFWKIVDYSDLPVPAASGIIKKFLDEGIVFIDENENILFTQKGLDLVKELGIEPFEEHKCRACEGRGIPFYDDKELYRTFVEIAKDRPKPVQQYDQGSVTPETTVSRVLFLDSRGDLRGKEIIVMGAEDDLTGLAIALTRKAKRVLIIDIDERLIDFDNRIIKELGIDNAEAMVWDLRNPYTEDFLGKFDVFITDPPETFAAFRAFIGRGIATLKDAGCAGYFGLTLRDSSIFRWKEFQEILINEYGVVITDIIQDFNDYMNWEYHPETRAAQIAPVKKNPTDIWYRSAWYRIETLPGFKRWNEPISDEVFYLDEEGSTT", "soluble on expression in E. coli": "not soluble"}
{"sequence": "MRTGKAWVWQLRRAAERTRRPFAGDNSPTFTVEHTHRMYPCHVFCNPLIGTIQMKACSRSERREGSKKMEAAKASKPDVSAVYAVDLSQRPVSQGDAAREKAALLQLARRMHEAPGEMLRRFVELAMELTGGISAGISLLEETEPPPVFRWHHLKGILSPFNGATTPRDFSPCGITLDRSAPTLTIHPERVYDWIPPGLFLPEVLLVPLYIGRTEPLGTLWIVADRIEHFHCGHAATMQELAGFIGIALKMVRSEEELQQALEQQELLTREMGHRLKNLFTILDSMVRISARSTDNKDDLVALLSGRLHALAAAHSLVKPSFSDVQGAASSLAELLSIVLEPHEQPAISGKRRLSLTGPTVLCGEQSVNGLALVFHELATNAAKYGSLCGDLGTVDVVWQIDGDDLGITWREDGGAQATSSSPASKGFGSTLVEATVIRQFGGTLSYDWRSTGLSVHIVIPLCRLAQ", "soluble on expression in E. coli": "not soluble"}
{"sequence": "MRTIEFQAKQLLMEKLDKNLLDHAKSLTDGNGPQIVDVYGLQQLAEVHCYLKTTHQFDPAEVEALLQFADPLEAACHCWEMNTHEYSFPICDLLRETRARELFELAKPEPPAKLSVREQLRAAVKEARQNLAPEERTKGGEAR", "soluble on expression in E. coli": "not soluble"}
{"sequence": "MRTVDFTPLYRNAIGFDRLLNMMENSAAKNAQGGYPPYNIEQKEDNQYRITMAVAGFGDEEIDITQQENTLIVRGERKPEESKNYIYQGIAERDFERKFQLADYVKVTGATMEHGLLHIDLEREIPEAMQPRKIAINGKHLLENK", "soluble on expression in E. coli": "not soluble"}
{"sequence": "MRVAIALAKDDATRVYPGPFGHAPRYAIYEAGPSGELVLLEIRENPYAKAHGEEKHAKMRELLRDVDLKVGARFGHKGSLGAFPLADRVEVGPVSLEEALARLKERSSA", "soluble on expression in E. coli": "soluble"}
{"sequence": "MRVDRRTFLKATGAALGALALSGLPARAQGLEGEDLEHLEQALKEVFGKGFKDLTPSDAVKLNMPAIAESGANVPAEVEVALPKEQVKAIHLFADKNPTPHILAFMPMKAEPYYATRVRLAETTAIRAVVETQDGKLLLASASTRVTVGGCG", "soluble on expression in E. coli": "soluble"}
{"sequence": "MRVFKTILLVVLMTLSQAMVAQTSPIPMLERAANQIISILKENKARLKSNPEIIYKAVEENLLPNVDVAGMSRSVLGRQAWSKATEAERVEFSKAFTRLVIRTYSSPLAQYSDETVQFLPLRGSLNSRFIRVNSVIVRSAGQNIPLSYSLVSKNGKWKIYDISVEGVSLLQSFRSQFAQALQHSSISQVIKEMQQKQIKKASLEHHHHHH", "soluble on expression in E. coli": "not soluble"}
{"sequence": "MRVGQHTLQFANPPVIVATASVVGPKEGEGPLGDTFDMVIDDSYFGEETWEKAERKMLEEAVKMVIAKAQLKPQDIDFLLAGDLLNQTISANYAARSLGIPFLGLYGACSTMYEGMALAAMLIDGGFAHHVVAACSSHYDTAERQYRFPTEQGIQRPPTAQWTVTGAGAVLMAPVGNGPRITHATIGRVLDVGIKDPNDMGSAMAPAAVDTIVRHFQDTGRGPIDYDLIITGDLGRVGHEIATKLLGEKKYDVSKNYSDCGILIYDHERQDTHAGGSGCACSAVVFAGHLMGKLNEGRYKRILGVGTGALLSTTATQQGESIPGIGHGVVIEGLEHHHHHH", "soluble on expression in E. coli": "not soluble"}
{"sequence": "MRVIFMRQVTKSKKIKILPYPEWLVKAGMSKGIDHDRQHLGIILAAGEMIKVRQVNAEYKEKLKLYLLNDNKNTQRSISFNTDWIELSVDAISVPFINTPYSDGIIPEIVFEYPDTSKLLPVYEKGEDESIFFESWDKQNAEFGVVESEYVIILIPEVSKDRLKSFSTSGGIDTVLGFYQDIFSFNNSLAGLSFEPQRYSDGNTRNRYFAKADKGGGGAAYYSNNWIASSSGSINTFWLSPNATNWGCLHEIAHGYQGGFIDDKYFSTREVWNNIYAACYQDVMLGAEKFNKGWLYNFGKQKEVEKSILNNINNGKEVNAWGERSKLYFIMLMLEKAGVNCFTHFNQIYRERKNTDQSVGSVLDMLSNSFATVENRVDVTLFLQMVGGHISKNQYQRNLFSHAKAVYPLNQLLQGDELTAVKKTLDLNSELSLVDVDSIEFTDIKSNLTLQFSIDDFAQIYGEELLILNGDNYVYNQSIMDKKQTLYNLPVGAYTLRIPTGRNKKYAPQINYLIVKNEDSQTQVDFVHRIGSPIVSQKISLQGLNDYTFATIFFDQENDTVSVDITKTKPHYHFPGMYARIRIKDKDNNELLNEVITGTNQSLSKNDFPLSSCYVIDIFHKEPGRVKLTPAYKGVIDNKSSYNEFIITPYGLQNIKLNNDPKVFLLENIKSAAEMLRSHPIMWHANFSEAKDNIYLAIDIFPSPQKEGLLEQYADCISSYYEKPNEDLGNAFSFIFKGINDREFLTTKLNLVTKKLEVKIVSGTPHSGFKRTYAVLRYFNADGNELLNLDIIGSKKQAGQEWVFPISGYGGEKLYLQHVEPKNRLVITNIMQGIRLSSRTSIQTYEIESLGLSRCT", "soluble on expression in E. coli": "not soluble"}
{"sequence": "MRVKEQLLTLRAYVPGKNIEEVKREYGLSKIVKLASNENPFGCSARVTEALTSLASQYALYPDGHAFELRTQVAKHLGVKAEQLLFGSGLDEVIQMISRALLHEGTNVVMANPTFSQYHHHAVIEGAEVREVSLKDGIHDLDAMLQQVDDQTKIVWICNPNNPTGTYVEKQKLLSFLESVPKSALVIMDEAYYEYAGAEDYPQTLPLLEKYENLMVLRTFSKAYGLAAFRIGYAVGNTELIGQLEVARLPFNTSTVAQSVALAALEDQAFLQECVKKNEEGLHQYYAFCKEYNVFYYPSQTNFIFLKLGIPGNEAFERLMKKGYIVRSGAAFGIDDGIRITVGLKEENDEIIELLKELVNEQVQKEETYS", "soluble on expression in E. coli": "soluble"}
{"sequence": "MRVLVTGGSGYIGSHTCVQLLQNGHDVIILDNLCNSKRSVLPVIERLGGKHPTFVEGDIRNEALMTEILHDHAIDTVIHFAGLKAVGESVQKPLEYYDNNVNGTLRLISAMRAANVKNFIFSSAATVYGDNPKIPYVESFPTGTPQSPYGKSKLMVEQILTDLQKAQPDWSIALLRYFNPVGAHPSGDMGEDPQGIPNNLMPYIAQVAVGRRDSLAIFGNDYPTEDGTGVRDYIHVMDLADGHVVAMEKLANKPGVHIYNLGAGVGNSVLDVVNAFSKACGKPVNYHFAPRREGDLPAYWADASKADRELNWRVTRTLDEMAQDTWHWQSRHPQGYPD", "soluble on expression in E. coli": "soluble"}
{"sequence": "MRVYYYMNIEELKRVIKDQREYLESLEKQKIIERELPFNVEQYLSKPNILAILGVRRSGKSTLGYLLVREKNFAYIDFSDDRLVNFTDFDTLTKAFYELYGDFTHVLIDEPQYVNGWELFVNRLRKEKSVIITGSNSSLLSGELASALTGRHVDLILFPFSFKEYLTFRGVKVDLYSTKSISLIKNELENYLKEGGFPETLSLGKRIIPSIYNDIITKDVIGRYKIRDVVKFKEFVNSMVKYYSTEISVRKLANLLKISTRTIEEWLNAIQESYLLFFVRRYSRSPKQFNGQRKVYVIDAGIVNYLTSFSYGGLMENVVAIQLLRKNQLEGIYYLRGEDYEVDFVDEKNGELIQVSYVSSQDEINRNEIRSLVKGSQITEFNKLTIVSWDLEDEIIVEGKKIRIVPLWKYLI", "soluble on expression in E. coli": "soluble"}
{"sequence": "MRYEEPVFRPPSEAFSLIVQATIGCSWNRCTFCGMYKMKKFRVRDIEEVKEDFRLAKEIYGDVRRVFLADGNALAADTDYLLEIADYANKLFNLERISCYATPQDILEKSKEELKEIRNAGIKLLYVGIESGDDEILERIRKGVSSNEIAEACMKAHECGFELSVTVLTGIGGKERSYKNARNTARLLNRISPKYTGVLTYIPVPNTPLYVKIKRGEFLLPNPLENLLELRWMVERIEARTIFRCNHASNYLPLKGTLPEDREKLLKAIDYAIAHPEVLKPEWLRGL", "soluble on expression in E. coli": "not soluble"}
